# Experimental data published in patent US9518268B2, “Drought tolerant transgenic plants and method of making same” (PURDUE RESEARCH FOUNDATION, priority 2013, dated 2016).
# B1: PYL13: Arabidopsis thaliana PYR/PYL/RCAR family protein PYL13, SEQ ID NO: 1 (protein, listed as Arabidopsis thaliana)
# chain: MESSKQKRCRSSVVETIEAPLPLVWSILRSFDKPQAYQRFVKSCTMRSGGGGGKGGEGKGSVRDVTLVSGFPADFSTERLEELDDESHVMVVSIIGGNHRLVNYKSKTKVVASPEDMAKKTVVVESYVVDVPEGTSEEDTIFFVDNIIRYNLTSLAKLTKKMMK
# Tested on: RD29B-LUC expression
# Assay: ABA-independent induction of RD29B-LUC in triple mutant protoplasts
# Type: cell-based, Arabidopsis
# Settings: abi1/hab1/abi2 protoplasts
# Text: The basal RD29B-LUC expression level was elevated in protoplasts co-transfected with PP2CA-PYL13, HAI2-PYL13, or HAI3-PYL13, which is consistent with PYL13 inhibition of these PP2Cs in an ABA-independent manner in vivo (FIG. 4A). To exclude interference by endogenous PP2Cs in wild type protoplasts and to assess the ABA-independent selective inhibition of PP2Cs by PYL13, PYL13 was co-expressed with PP2CA, HAI1, HAI2, and HAI3 in abi1/hab1/abi2 triple mutant protoplasts, as shown in FIG. 4C. After transfection, protoplasts were incubated for 4.5 h under light in the absence of ABA. Error bars indicate s.e.m. (n=3).
# Expression of RD29B-LUC in the absence of ABA was increased in the transfections of PYL9-K63Q/L89F or PYL11-K39Q/L66F together with SnRK2.6 and ABF2 to a considerable level. The ABA-independent RD29B-LUC expression is about 70% of that in the presence of 5 μM ABA in the transfection of PYL11-K39Q/L66F, while about 30˜60% in the transfection of PYL9-K63Q/L89F (FIG. 4). […] RD29B-LUC was used as the ABA-responsive reporter. ZmUBQ-GUS was used as the internal control. After transfection, protoplasts were incubated for 4.5 h under light in the absence of ABA (open bars) or in the presence of 5 μM ABA (closed bars). Error bars indicate s.e.m. (n=4).
# Assays for transient expression in protoplasts were performed as described (Fujii et al., 2009). Leaf strips (0.5 mm) were cut from the middle part of second leaves using a razor blade (VWR SCIENTIFIC) and submerged in 15 mL of enzyme solution containing 20 mM MES, pH 5.7, 1.5% (w/v) cellulase R10 (YAKULT PHARMACEUTICAL INDUSTRY), 0.4% (w/v) macerozyme R10 (YAKULT PHARMACEUTICAL INDUSTRY), 0.4 M mannitol, 20 mM KCl, 10 mM CaCl2, 1 mM 2-mercaptoethanol, and 0.1% BSA. The leaves were vacuum infiltrated for 30 min and then incubated without shaking for 3 h in the dark at room temperature. The enzyme/protoplast solution was diluted with 15 mL of W5 solution (2 mM MES, pH 5.7, 154 mM NaCl, 125 mM CaCl2, and 5 mM KCl) and filtered with a 75-μm nylon mesh. Protoplasts were centrifuged at 100 g for 2 min in a 30-mL round-bottomed tube (SARSTEDT), resuspended in W5 solution, and rested for 30 min at room temperature.
# Before transfection, protoplasts were changed into MMg solution (4 mM MES, pH 5.7, 0.4 M mannitol, and 15 mM MgCl2) to a final concentration of 2×10^5 cells per microliter. Protoplasts (100 μl) were gently and thoroughly mixed with the plasmid DNA mixture (less than 10 μl) and 110 μl of PEG solution (40% w/v PEG-4000, 0.2 M mannitol, and 100 mM CaCl2), incubated for 5 min, washed with 440 μl of W5 solution, and resuspended in 50 μl of WI solution (4 mM MES, pH 5.7, 0.5 M mannitol, and 20 mM KCl). After transfection, protoplasts were incubated in WI solution without ABA or with 5 μM ABA under light. The protoplasts were harvested after 4.5 h, frozen in liquid N2, and stored at −80° C.
# The frozen protoplasts were resuspended in 50 μl of protoplast lysis buffer containing 2.5 mM Tris-phosphate, pH 7.8, 1 mM DTT, 2 mM DACTAA, 10% (v/v) glycerol, and 1% (v/v) Triton X-100. Protoplast lysates (20 μl) were mixed with 100 μl of LUC mix (PROMEGA), and LUC luminescence was measured with a plate reader (Wallac VICTOR2 plate reader).
# Protoplast lysates (2 μl) were mixed with 10 μl of 4-methylumbelliferyl β-D-glucuronide (MUG) substrate mix (10 mM Tris-HCl, pH 8, 1 mM MUG [GOLD BIOTECHNOLOGY], and 2 mM MgCl2). After the mixture was kept for 30 min at 37° C., 100 μl of 0.2 M Na2CO3 was added, and GUS activity was measured using the plate reader with the excitation filter at 355 nm and the emission filter at 460 nm.
# All the plasmids used in this assay were purified with the QIAGEN Plasmid Maxi Kit or the QIAGEN Plasmid Midi Kit. The quality of plasmid DNA is important for high transfection efficiency. RD29B::LUC (7 μg of plasmid per transfection) was used as the ABA-responsive reporter. ZmUBQ::GUS (2 μg of plasmid per transfection) was used as the internal control. […]
molecule,measurement,setting,value
"PYL2: Arabidopsis thaliana PYL family ABA receptor protein PYL2, AT2G26040",expression of RD29B-LUC in the absence of ABA,"with PP2CA only, SnRK2.6 and ABF2 (control transfection)",an increase was not observed
B1,expression of RD29B-LUC in the absence of ABA,"with HAI1, SnRK2.6 and ABF2",an increase was not observed
same,expression of RD29B-LUC in the absence of ABA,"with PP2CA, HAI2, or HAI3, SnRK2.6 and ABF2",increased
